These results are taken from article PMC9365671.

Assay [1] deals with KIF5C-KLC1 heterotetramer (human) (UniProt O60282).
In assay [2] the target is taxol-stabilised microtubules of porcine brain tubulin (porcine) (UniProt P02550). Briefly: single-molecule TIRF microscopy on microtubules; biotinylated taxol-stabilised MTs held on streptavidin-coated glass, motor in solution; 90 mM HEPES-KOH pH 7.6, 50 mM KCH3COO, 2 mM Mg(CH3COO)2, 1 mM EGTA, 10% glycerol, 2 mM ATP; landing rate = processive and non-processive events per MT length, time and motor concentration. On the set-up: landing rate: unit not given here.

Assay [3] has the same target. The description is as above.

Read-outs that look alike come from different tables or passages of the source.

Sequence of tail-truncated human KIF5A (aa 1-416)-mScarlet-StrepII (Q12840 1-416): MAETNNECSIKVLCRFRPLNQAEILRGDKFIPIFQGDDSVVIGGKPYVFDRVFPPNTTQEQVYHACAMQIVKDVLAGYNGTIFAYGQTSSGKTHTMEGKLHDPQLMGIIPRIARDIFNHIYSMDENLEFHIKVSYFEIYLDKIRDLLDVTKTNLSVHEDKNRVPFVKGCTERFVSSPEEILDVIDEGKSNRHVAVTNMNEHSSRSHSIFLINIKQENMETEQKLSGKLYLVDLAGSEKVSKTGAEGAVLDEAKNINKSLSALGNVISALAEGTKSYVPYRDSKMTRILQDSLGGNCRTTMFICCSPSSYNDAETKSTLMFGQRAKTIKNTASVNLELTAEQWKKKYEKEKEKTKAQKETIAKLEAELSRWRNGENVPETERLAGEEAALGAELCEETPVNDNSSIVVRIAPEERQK
Sequence of tail-truncated human KIF5C (aa 1-416)-mScarlet-StrepII (O60282 1-416): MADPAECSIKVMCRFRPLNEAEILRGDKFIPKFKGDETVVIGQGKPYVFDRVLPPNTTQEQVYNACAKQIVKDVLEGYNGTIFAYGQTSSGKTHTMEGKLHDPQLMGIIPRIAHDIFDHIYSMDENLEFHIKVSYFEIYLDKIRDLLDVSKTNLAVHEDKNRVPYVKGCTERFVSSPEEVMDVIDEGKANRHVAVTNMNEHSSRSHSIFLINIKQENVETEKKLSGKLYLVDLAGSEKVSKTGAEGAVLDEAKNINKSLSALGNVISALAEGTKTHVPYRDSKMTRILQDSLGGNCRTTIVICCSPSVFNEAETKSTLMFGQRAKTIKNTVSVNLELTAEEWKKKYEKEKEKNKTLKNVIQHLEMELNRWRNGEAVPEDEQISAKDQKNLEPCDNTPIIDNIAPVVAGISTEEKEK
Sequence of KIF5B-IAK/AAA-mScarlet-StrepII (P33176 whole entry I920A/K922A): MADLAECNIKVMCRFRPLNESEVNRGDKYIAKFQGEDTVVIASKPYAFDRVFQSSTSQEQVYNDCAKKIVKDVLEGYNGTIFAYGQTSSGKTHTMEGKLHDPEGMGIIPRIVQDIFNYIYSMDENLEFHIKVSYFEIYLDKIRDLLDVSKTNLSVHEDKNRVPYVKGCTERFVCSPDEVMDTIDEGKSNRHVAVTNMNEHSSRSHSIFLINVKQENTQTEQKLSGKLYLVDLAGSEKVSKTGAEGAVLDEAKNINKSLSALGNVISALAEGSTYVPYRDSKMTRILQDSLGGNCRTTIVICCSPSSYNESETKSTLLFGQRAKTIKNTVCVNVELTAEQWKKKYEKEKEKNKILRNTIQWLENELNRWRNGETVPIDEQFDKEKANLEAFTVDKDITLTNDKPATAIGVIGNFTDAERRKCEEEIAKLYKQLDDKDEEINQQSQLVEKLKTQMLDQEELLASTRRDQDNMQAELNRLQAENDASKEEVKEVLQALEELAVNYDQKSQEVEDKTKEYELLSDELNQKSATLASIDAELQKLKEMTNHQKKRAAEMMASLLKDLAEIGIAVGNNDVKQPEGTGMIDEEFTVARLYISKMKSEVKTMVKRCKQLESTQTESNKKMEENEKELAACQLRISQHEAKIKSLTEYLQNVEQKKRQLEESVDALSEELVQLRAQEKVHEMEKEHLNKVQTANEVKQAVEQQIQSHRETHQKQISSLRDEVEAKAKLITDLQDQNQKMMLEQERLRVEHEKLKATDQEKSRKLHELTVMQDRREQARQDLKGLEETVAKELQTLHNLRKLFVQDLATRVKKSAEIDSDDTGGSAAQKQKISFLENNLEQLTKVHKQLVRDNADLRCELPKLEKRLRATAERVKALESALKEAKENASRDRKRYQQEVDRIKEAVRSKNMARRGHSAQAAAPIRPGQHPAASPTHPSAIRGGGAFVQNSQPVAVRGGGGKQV
Sequence of tail-truncated human KIF5B (aa 1-420)-mScarlet-StrepII (P33176 1-420): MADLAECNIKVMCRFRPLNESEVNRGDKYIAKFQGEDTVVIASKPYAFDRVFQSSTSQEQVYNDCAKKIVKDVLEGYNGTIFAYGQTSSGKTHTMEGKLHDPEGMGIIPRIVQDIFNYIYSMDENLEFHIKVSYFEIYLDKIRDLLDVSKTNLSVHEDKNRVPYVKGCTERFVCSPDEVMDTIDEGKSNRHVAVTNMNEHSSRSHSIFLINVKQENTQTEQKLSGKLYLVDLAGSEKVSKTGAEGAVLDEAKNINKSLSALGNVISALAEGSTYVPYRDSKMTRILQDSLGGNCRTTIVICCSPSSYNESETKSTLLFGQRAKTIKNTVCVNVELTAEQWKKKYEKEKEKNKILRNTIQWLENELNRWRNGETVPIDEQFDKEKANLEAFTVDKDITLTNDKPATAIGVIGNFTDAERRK
Sequence of full-length human KIF5B-mScarlet-StrepII (P33176 whole entry): as the sequence (P33176 whole entry I920A/K922A) above, with A920I, A922K counted along it
Sequence of KIF5B-Δhinge (Δ505-610)-mScarlet-StrepII (P33176 other isoform, or with tags, fused parts or gaps mutant): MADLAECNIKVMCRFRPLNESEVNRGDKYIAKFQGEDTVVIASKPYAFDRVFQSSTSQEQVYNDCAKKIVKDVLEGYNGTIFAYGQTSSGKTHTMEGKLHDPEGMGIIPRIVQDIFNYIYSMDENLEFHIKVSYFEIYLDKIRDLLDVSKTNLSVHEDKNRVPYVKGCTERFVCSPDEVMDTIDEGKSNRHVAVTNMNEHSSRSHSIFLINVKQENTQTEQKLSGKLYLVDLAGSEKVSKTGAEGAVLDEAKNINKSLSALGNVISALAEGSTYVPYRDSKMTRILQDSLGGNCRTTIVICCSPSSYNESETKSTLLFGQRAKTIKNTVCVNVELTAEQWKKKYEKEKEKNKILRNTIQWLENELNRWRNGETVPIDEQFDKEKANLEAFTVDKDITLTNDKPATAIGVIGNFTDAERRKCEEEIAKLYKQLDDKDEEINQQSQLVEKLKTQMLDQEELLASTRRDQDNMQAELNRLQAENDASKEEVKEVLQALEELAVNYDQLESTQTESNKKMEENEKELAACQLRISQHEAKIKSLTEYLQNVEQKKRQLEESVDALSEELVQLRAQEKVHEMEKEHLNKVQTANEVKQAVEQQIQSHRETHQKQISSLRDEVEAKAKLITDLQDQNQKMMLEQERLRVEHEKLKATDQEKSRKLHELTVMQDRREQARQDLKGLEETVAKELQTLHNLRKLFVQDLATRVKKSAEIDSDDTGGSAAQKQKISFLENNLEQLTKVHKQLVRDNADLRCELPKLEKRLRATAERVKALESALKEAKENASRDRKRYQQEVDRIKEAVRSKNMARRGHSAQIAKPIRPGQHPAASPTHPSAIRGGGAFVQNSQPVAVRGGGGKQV
Sequence of KIF5C-KLC1 heterotetramer (human) (O60282 whole entry, chain 1 of 2): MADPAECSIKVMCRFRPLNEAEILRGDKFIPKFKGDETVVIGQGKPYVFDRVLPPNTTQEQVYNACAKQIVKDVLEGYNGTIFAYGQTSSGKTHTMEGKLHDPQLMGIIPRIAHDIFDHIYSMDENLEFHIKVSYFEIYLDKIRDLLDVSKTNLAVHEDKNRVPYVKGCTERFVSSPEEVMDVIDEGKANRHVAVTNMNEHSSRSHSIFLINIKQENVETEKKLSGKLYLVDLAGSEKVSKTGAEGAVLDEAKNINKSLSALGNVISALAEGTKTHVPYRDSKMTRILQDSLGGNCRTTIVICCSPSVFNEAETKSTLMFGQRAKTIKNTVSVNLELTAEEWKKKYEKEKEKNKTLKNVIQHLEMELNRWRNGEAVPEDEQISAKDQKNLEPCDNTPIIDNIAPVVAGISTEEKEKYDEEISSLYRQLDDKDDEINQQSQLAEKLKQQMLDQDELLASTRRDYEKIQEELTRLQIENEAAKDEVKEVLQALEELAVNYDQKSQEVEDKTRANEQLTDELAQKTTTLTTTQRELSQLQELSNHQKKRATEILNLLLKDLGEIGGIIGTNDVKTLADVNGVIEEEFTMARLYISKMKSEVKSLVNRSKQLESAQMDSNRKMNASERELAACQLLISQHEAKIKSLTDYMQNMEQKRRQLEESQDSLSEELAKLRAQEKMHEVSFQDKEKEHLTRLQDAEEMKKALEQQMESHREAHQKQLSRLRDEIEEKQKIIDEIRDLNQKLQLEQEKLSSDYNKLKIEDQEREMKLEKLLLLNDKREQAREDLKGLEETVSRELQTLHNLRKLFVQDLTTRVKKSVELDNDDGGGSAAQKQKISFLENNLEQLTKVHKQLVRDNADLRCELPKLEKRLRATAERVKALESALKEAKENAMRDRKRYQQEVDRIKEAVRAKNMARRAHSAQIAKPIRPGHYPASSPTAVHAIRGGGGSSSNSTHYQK
Sequence of KIF5C-KLC1 heterotetramer (human) (Q07866 whole entry, chain 2 of 2, further chain): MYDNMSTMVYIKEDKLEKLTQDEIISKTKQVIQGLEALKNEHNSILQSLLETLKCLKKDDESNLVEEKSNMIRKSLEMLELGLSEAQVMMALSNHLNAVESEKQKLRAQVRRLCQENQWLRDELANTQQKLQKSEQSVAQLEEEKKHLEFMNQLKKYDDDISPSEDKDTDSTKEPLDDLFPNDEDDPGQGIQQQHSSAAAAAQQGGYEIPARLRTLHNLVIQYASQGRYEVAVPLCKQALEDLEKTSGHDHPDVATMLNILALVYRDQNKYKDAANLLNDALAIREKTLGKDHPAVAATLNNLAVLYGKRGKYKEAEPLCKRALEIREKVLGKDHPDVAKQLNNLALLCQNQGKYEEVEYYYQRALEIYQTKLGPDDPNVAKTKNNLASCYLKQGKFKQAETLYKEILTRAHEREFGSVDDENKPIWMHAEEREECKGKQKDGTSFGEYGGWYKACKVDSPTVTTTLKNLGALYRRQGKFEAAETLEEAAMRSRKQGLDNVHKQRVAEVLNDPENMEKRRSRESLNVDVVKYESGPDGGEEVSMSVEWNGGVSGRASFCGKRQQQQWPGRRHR

For the substance “6xHis-2xStrepII-sfGFP-nesprin-4 (aa 1-240) WD/AA (from UniProt Q8N205-2 1-240) (domain or fragment)”, in assay [1], the landing rate of 10 nM KIF5C-KLC1 on MTs (ATP) with 500 nM nesprin-4 WDAA (0.1 without) is 0.2 /μm/s/μM. With “KIF5A-KLC1 heterotetramer (from UniProt Q12840 1-1032; Q07866 1-573) (complex)”, the landing rate in assay [2] came to 0.1. For the substance “KIF5B-E178A-mScarlet-StrepII (from UniProt P33176 1-963) (natural protein)”, the landing rate in assay [3] was 6.2 /μm/s/μM.

As for “KIF5B-H129A-mScarlet-StrepII (from UniProt P33176 1-963) (natural protein)”, the landing rate in assay [3] is 5.4 /μm/s/μM.

“KIF5B-IAK/AAA-mScarlet-StrepII (from UniProt P33176 1-963) (natural protein)”: the landing rate in assay [3] is 7 /μm/s/μM. Take “KIF5B-KLC1 heterotetramer (from UniProt P33176 1-963; Q07866 1-573) (complex)”: in assay [2], the landing rate (Motors/μm/s/μm) was 0.06.

Regarding “KIF5B-Δhinge (Δ505-610)-mScarlet-StrepII (from UniProt P33176 1-963) (natural protein)”, the landing rate in assay [3] was 22.8 /μm/s/μM. In assay [2], “KIF5C-KLC1 heterotetramer (from UniProt O60282 1-957; Q07866 1-573) (complex)” yielded a landing rate of 0.06. “full-length human KIF5B-mScarlet-StrepII (from UniProt P33176 1-963) (natural protein)” came in with a landing rate (Motors/μm/s/μm) in assay [2] of 0.08. In the case of “tail-truncated human KIF5A (aa 1-416)-mScarlet-StrepII (from UniProt Q12840 1-416) (domain or fragment)”, in assay [2], the landing rate (motors/µm/s/µM) was determined as 162.

“tail-truncated human KIF5B (aa 1-420)-mScarlet-StrepII (from UniProt P33176 1-420) (domain or fragment)” returned a landing rate (motors/µm/s/µM) in assay [2] of 146. “tail-truncated human KIF5C (aa 1-416)-mScarlet-StrepII (from UniProt O60282 1-416) (domain or fragment)”: in assay [2], the landing rate (motors/µm/s/µM) stood at 147.
